Assay results taken from US20240261333A1, “NOVEL TARGETS FOR ENHANCING ANTI-TUMOR IMMUNITY” (THE BROAD INSTITUTE, INC., priority 2021, published 2024).

T1: B3GNT2 (Homo sapiens, UniProt Q9NY97)
T1 construct: The respective ORFs of candidate genes [CD274 (NM_014143), MCL1 (NM_021960), JUNB (NM_002229), and B3GNT2 (NM_006577)] were synthesized; expressed in transfected cells; host or cells: A375 melanoma cells (lentiviral ORF overexpression)
T1 sequence (Q9NY97 1-397): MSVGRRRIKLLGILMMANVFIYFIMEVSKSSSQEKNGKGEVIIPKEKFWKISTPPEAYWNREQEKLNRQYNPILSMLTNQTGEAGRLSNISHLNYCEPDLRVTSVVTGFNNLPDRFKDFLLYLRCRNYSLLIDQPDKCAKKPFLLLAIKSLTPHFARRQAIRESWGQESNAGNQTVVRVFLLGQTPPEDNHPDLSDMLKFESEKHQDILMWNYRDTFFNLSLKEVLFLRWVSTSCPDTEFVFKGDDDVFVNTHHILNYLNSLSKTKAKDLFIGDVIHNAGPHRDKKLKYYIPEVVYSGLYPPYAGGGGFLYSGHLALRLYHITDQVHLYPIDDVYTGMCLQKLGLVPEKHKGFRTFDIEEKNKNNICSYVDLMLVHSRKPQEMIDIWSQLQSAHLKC

B1: PIP (protein)
chain: QDNTRKIIIKNFDIPKSVRPNDEVTAVLAVQTELKECMVVKTYLISSIPLQGAFNYKYTACLCDDNPKTFYWDFYTNRTVQIAAVVDVIRELGICPDDAAVIPIKNNRFYTIEILKVE
B2: HSD17B12 (protein)
chain: MESALPAAGFLYWVGAGTVAYLALRISYSLFTALRVWGVGNEAGVGPGLGEWAVVTGSTDGIGKSYAEELAKHGMKVVLISRSKDKLDQVSSEIKEKFKVETRTIAVDFASEDIYDKIKTGLAGLEIGILVNNVGMSYEYPEYFLDVPDLDNVIKKMININILSVCKMTQLVLPGMVERSKGAILNISSGSGMLPVPLLTIYSATKTFVDFFSQCLHEEYRSKGVFVQSVLPYFVATKLAKIRKPTLDKPSPETFVKSAIKTVGLQSRTNGYLIHALMGSIISNLPSWIYLKIVMNMNKSTRAHYLKKTKKN
B3: ERLIN1 (protein)
chain: MNMTQARVLVAAVVGLVAVLLYASIHKIEEGHLAVYYRGGALLTSPSGPGYHIMLPFITTFRSVQTTLQTDEVKNVPCGTSGGVMIYIDRIEVVNMLAPYAVFDIVRNYTADYDKTLIFNKIHHELNQFCSAHTLQEVYIELFDQIDENLKQALQKDLNLMAPGLTIQAVRVTKPKIPEAIRRNFELMEAEKTKLLIAAQKQKVVEKEAETERKKAVIEAEKIAQVAKIRFQQKVMEKETEKRISEIEDAAFLAREKAKADAEYYAAHKYATSNKHKLTPEYLELKKYQAIASNSKIYFGSNIPNMFVDSSCALKYSDIRTGRESSLPSKEALEPSGENVIQNKESTG
B4: FAM3C (protein)
chain: QVFEIKMDASLGNLFARSALDTAARSTKPPRYKCGISKACPEKHFAFKMASGAANVVGPKICLEDNVLMSGVKNNVGRGINVALANGKTGEVLDTKYFDMWGGDVAPFIEFLKAIQDGTIVLMGTYDDGATKLNDEARRLIADLGSTSITNLGFRDNWVFCGGKGIKTKSPFEQHIKNNKDTNKYEGWPEVVEMEGCIPQKQD
B5: MYL9 (protein)
chain: SSKRAKAKTTKKRPQRATSNVFAMFDQSQIQEFKEAFNMIDQNRDGFIDKEDLHDMLASLGKNPTDEYLEGMMSEAPGPINFTMFLTMFGEKLNGTDPEDVIRNAFACFDEEASGFIHEDHLRELLTTMGDRFTDEEVDEMYREAPIDKKGNFNYVEFTRILKHGAKDKDD
B6: PRDX2 (protein)
chain: ASGNARIGKPAPDFKATAVVDGAFKEVKLSDYKGKYVVLFFYPLDFTFVCPTEIIAFSNRAEDFRKLGCEVLGVSVDSQFTHLAWINTPRKEGGLGPLNIPLLADVTRRLSEDYGVLKTDEGIAYRGLFIIDGKGVLRQITVNDLPVGRSVDEALRLVQAFQYTDEHGEVCPAGWKPGSDTIKPNVDDSKEYFSKHN
B7: SLC25A4 (protein)
chain: GDHAWSFLKDFLAGGVAAAVSKTAVAPIERVKLLLQVQHASKQISAEKQYKGIIDCVVRIPKEQGFLSFWRGNLANVIRYFPTQALNFAFKDKYKQLFLGGVDRHKQFWRYFAGNLASGGAAGATSLCFVYPLDFARTRLAADVGKGAAQREFHGLGDCIIKIFKSDGLRGLYQGFNVSVQGIIIYRAAYFGVYDTAKGMLPDPKNVHIFVSWMIAQSVTAVAGLVSYPFDTVRRRMMMQSGRKGADIMYTGTVDCWRKIAKDEGAKAFFKGAWSNVLRGMGGAFVLVLYDEIKKYV
B8: HYOU1 (protein)
chain: LAVMSVDLGSESMKVAIVKPGVPMEIVLNKESRRKTPVIVTLKENERFFGDSAASMAIKNPKATLRYFQHLLGKQADNPHVALYQARFPEHELTFDPQRQTVHFQISSQLQFSPEEVLGMVLNYSRSLAEDFAEQPIKDAVITVPVFFNQAERRAVLQAARMAGLKVLQLINDNTATALSYGVFRRKDINTTAQNIMFYDMGSGSTVCTIVTYQMVKTKEAGMQPQLQIRGVGFDRTLGGLEMELRLRERLAGLFNEQRKGQRAKDVRENPRAMAKLLREANRLKTVLSANADHMAQIEGLMDDVDFKAKVTRVEFEELCADLFERVPGPVQQALQSAEMSLDEIEQVILVGGATRVPRVQEVLLKAVGKEELGKNINADEAAAMGAVYQAAALSKAFKVKPFVVRDAVVYPILVEFTREVEEEPGIHSLKHNKRVLFSRMGPYPQRKVITFNRYSHDFNFHINYGDLGFLGPEDLRVFGSQNLTTVKLKGVGDSFKKYPDYESKGIKAHFNLDESGVLSLDRVESVFETLVEDSAEEESTLTKLGNTISSLFGGGTTPDAKENGTDTVQEEEESPAEGSKDEPGEQVELKEEAEAPVEDGSQPPPPEPKGDATPEGEKATEKENGDKSEAQKPSEKAEAGPEGVAPAPEGEKKQKPARKRRMVEEIGVELVVLDLPDLPEDKLAQSVQKLQDLTLRDLEKQEREKAANSLEAFIFETQDKLYQPEYQEVSTEEQREEISGKLSAASTWLEDEGVGATTVMLKEKLAELRKLCQGLFFRVEERKKWPERLSALDNLLNHSSMFLKGARLIPEMDQIFTEVEMTTLEKVINETWAWKNATLAEQAKLPATEKPVLLSKDIEAKMMALDREVQYLLNKAKFTKPRPRPKDKNGTRAEPPLNASASDQGEKVIPPAGQTEDAEPISEPEKVETGSEPGDTEPLELGGPGAEPEQKEQSTGQKRPLKNDEL
B9: TGM3 (protein)
chain: AALGVQSINWQTAFNRQAHHTDKFSSQELILRRGQNFQVLMIMNKGLGSNERLEFIVSTGPYPSESAMTKAVFPLSNGSSGGWSAVLQASNGNTLTISISSPASAPIGRYTMALQIFSQGGISSVKLGTFILLFNPWLNVDSVFMGNHAEREEYVQEDAGIIFVGSTNRIGMIGWNFGQFEEDILSICLSILDRSLNFRRDAATDVASRNDPKYVGRVLSAMINSNDDNGVLAGNWSGTYTGGRDPRSWNGSVEILKNWKKSGFSPVRYGQCWVFAGTLNTALRSLGIPSRVITNFNSAHDTDRNLSVDVYYDPMGNPLDKGSDSVWNFHVWNEGWFVRSDLGPSYGGWQVLDATPQERSQGVFQCGPASVIGVREGDVQLNFDMPFIFAEVNADRITWLYDNTTGKQWKNSVNSHTIGRYISTKAVGSNARMDVTDKYKYPEGSDQERQVFQKALGKLKPNTPFAATSSMGLETEEQEPSIIGKLKVAGMLAVGKEVNLVLLLKNLSRDTKTVTVNMTAWTIIYNGTLVHEVWKDSATMSLDPEEEAEHPIKISYAQYEKYLKSDNMIRITAVCKVPDESEVVVERDIILDNPTLTLEVLNEARVRKPVNVQMLFSNPLDEPVRDCVLMVEGSGLLLGNLKIDVPTLGPKEGSRVRFDILPSRSGTKQLLADFSCNKFPAIKAMLSIDVAE
B10: FAM3A (protein)
chain: FPRIQQLFTSPESSVTAAPRARKYKCGLPQPCPEEHLAFRVVSGAANVIGPKICLEDKMLMSSVKDNVGRGLNIALVNGVSGELIEARAFDMWAGDVNDLLKFIRPLHEGTLVFVASYDDPATKMNEETRKLFSELGSRNAKELAFRDSWVFVGAKGVQNKSPFEQHVKNSKHSNKYEGWPEALEMEGCIPRRSTAS
B11: CALR (protein)
chain: EPAVYFKEQFLDGDGWTSRWIESKHKSDFGKFVLSSGKFYGDEEKDKGLQTSQDARFYALSASFEPFSNKGQTLVVQFTVKHEQNIDCGGGYVKLFPNSLDQTDMHGDSEYNIMFGPDICGPGTKKVHVIFNYKGKNVLINKDIRCKDDEFTHLYTLIVRPDNTYEVKIDNSQVESGSLEDDWDFLPPKKIKDPDASKPEDWDERAKIDDPTDSKPEDWDKPEHIPDPDAKKPEDWDEEMDGEWEPPVIQNPEYKGEWKPRQIDNPDYKGTWIHPEIDNPEYSPDPSIYAYDNFGVLGLDLWQVKSGTIFDNFLITNDEAYAEEFGNETWGVTKAAEKQMKDKQDEEQRLKEEEEDKKRKEEEEAEDKEDDEDKDEDEEDEEDKEEDEEEDVPGQAKDEL

Target: T1, B3GNT2
Test: Co-IP of FLAG-tagged B3GNT2 followed by mass spectrometry
Assay type: cell-based
Parameters: C-term IgG / C-term flag: unit not given here
Settings: mass spectrometry count, unit not given; for C-term flag / N-term FLAG: Co-IP with FLAG antibody; for C-term flag / C-term IgG: C-terminally FLAG-tagged B3GNT2; for N-term FLAG / N-term IgG: N-terminally FLAG-tagged B3GNT2; for C-term IgG / N-term IgG: Co-IP with IgG control antibody
Procedure, shortened: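 FLAG-tagged B3GNT2 immunoprecipitated from cell lysate (HEPES, 1% Triton X-100, 150 mM NaCl) with anti-FLAG versus […], overnight at 4° C, then captured on Protein A/G magnetic beads for 4 h. Two biological replicates per condition. Peptides fractionated and analyzed by nano-LC on an Orbitrap Elite in data-dependent mode.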

Molecule | C-term flag | N-term FLAG | C-term IgG | N-term IgG
B1 | 3 | 4 | 2 | 0
B2 | 10 | 10 | 0 | 0
B3 | 9 | 11 | 0 | 0
B4 | 23 | 2 | 0 | 0
B5 | 0 | 3 | 0 | 0
B6 | 5 | 9 | 0 | 5
B7 | 14 | 9 | 0 | 0
B8 | 27 | 0 | 0 | 0
B9 | 5 | 9 | 3 | 2
B10 | 18 | 9 | 0 | 0
B11 | 20 | 6 | 0 | 0
